Laboratory results reported in the supplement of paper PMC9170038.

Test system: MS2 coat protein
Test: apparent KD of MS2 coat protein; higher = weaker reporter binding
Settings: Eterna round: R107
Summary of the method: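 The buffer was 100 mM Tris-HCl pH 7.5 with 80 mM KCl and 4 mM MgCl2, used without or with constant ligand. In it, RNA switches transcribed on-chip from Illumina sequencing clusters were titrated with SNAP-549-labelled MS2 coat protein in twofold steps from 0.7 or 1.5 nM to 3 µM. Apparent KD for each design is the median of its normalised cluster binding-curve fits.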

[1] = input ligand: theophylline 20 uM
[2] = input ligand: tryptophan 2.4 mM
[3] = input ligand: theophylline 2 mM

| Sequence | apparent KD of MS2 coat protein (input ligand: arginine 13.2 mM) [µM] | apparent KD of MS2 coat protein [1] [µM] | apparent KD of MS2 coat protein [2] [µM] | apparent KD of MS2 coat protein (input ligand: none) [µM] | apparent KD of MS2 coat protein [3] [µM] |
| --- | --- | --- | --- | --- | --- |
| GAUCUGUCGGGUGAUACCAGCCUCGGCACAUCUCGUGCCGAACAUGAGGAUCACCCAUGUGGCCCUUGGCAGCACAUGACAAAUC [Regebece] | 0.064 | 0.652 | 1.05 | – | – |
| GAUCUUGCGGGCGCCCGCAAGGUUGCGGAUACCAGCGAGAUUAAUCGCCCUUGGCAGCCGAACAUGAGGAUCACCCAUGUCGGAC [Same State - Theophylline A Attempt #2 (HarryS)] | 0.00892 | 0.0115 | 0.0105 | – | – |
| GAUGAACAUACUGAUACCAGUGUACUGACAUGAGGAUCACCCAUGUUGGGUUUUGUUGUACACCCUUGGCAGCAGAAUGUUUAUC [AstrosExyTheB#7] | 0.0462 | 0.0665 | 0.0554 | – | – |
| GAUGCACAUGAGGAUCACCCAUGUCCUGAUACCAGAACGCGACUUUUCCCUUGGCAGCAGAAUUCACUUUUUUACAUUCAUACUG [theeternabot_sameState_MS2_Theo_A_11] | 0.0227 | 0.0306 | 0.027 | – | – |
| GAUUACAUGAGGAUCACCCAUGUAACUGAAGGAGCGGUAAUAAAGCCAGGUAGGUCGCAGAACAACAUGUGGUUCAUCCAUGUAA [#14 Exclusion - Arginine A] | 0.0232 | 0.035 | 0.0213 | 0.0201 | 0.0268 |
| GAUUACAUGAGGAUCACCCAUGUAACUGAAGGAGCGGUGAUAAAGCCAGGUAGGUCGCAGAACGACAUGUGGUUCAUCCAUGUAA [#16 Exclusion - Arginine A] | 0.0337 | 0.0439 | 0.0303 | 0.0368 | 0.048 |
| GCAACAUGAGGAUCACCCAUGUUUACUGAAGGAGCGAGACAGAACUCAGGUAGGUCGCAGACGGCGGAAUCGCCGACGACAUGGG [Exclusion Arginine A GF24] | 0.0196 | 0.0335 | 0.0216 | 0.0224 | 0.0279 |
| GCAAUACAUGAGGAUCACCCAUGUGCAGAUACCAGAGGUGCGUGCCUCCCUUGGCAGCUGCGACGCUCUGGAAGCUUGUGUGUCU [Exclusion Theophylline A GF27] | 0.0184 | 0.0262 | 0.0212 | – | – |
| GCACAAGAUGGAAGGAGCGCUGGUAUAAGUCACAUGAGGAUCACCCAUGUGCUCCUUGCCGAGCAGGUAGGUCGCCAUCUUGUGC [SSAB NP+V+V2 #5] | 0.0223 | 0.071 | 0.0681 | 0.042 | 0.0669 |
| GCAUCAUGAACGGCCGCCACUAAGGAAUGAGCGGCUCUUGCGAUACAUGAGGAUCACCCAUGUCUUAGGACCGGGUUCAUUGUCA [theeternabot_sameState_MS2_Trp_B_49] | 0.069 | 0.343 | – | – | 0.322 |
| GCAUCCUAGUCGGCCGCCACUGCAACAUGAGGAUCACCCAUGUACUGCACAUGGGAAUGCAGUAGCAGGACCGGGACUAGGAUGC [(T1)-(M1)-(M2)-(T)''-(M)'-(T)'-(T2)_Design2_2/18/17] | 0.109 | 0.268 | 0.0484 | 0.294 | 0.249 |
| GCAUCCUAGUCGGCCGCCACUGCAUGUUGGCAGUGCUGCAACAUACAUGAGGAUCACCCAUGUUGCAGGACCGGGACUAGGAUGC [(Trp1)-(MT2)''-(T1)'-(MT2)'-(Ms2)-(Trp2)_Design1] | 0.0238 | 0.0287 | 0.0228 | 0.0243 | 0.0252 |
| GCAUCCUAGUCGGCCGCCACUGGGUGUACCCAGUGCUGGUACAAACAUGAGGAUCACCCAUGUACCAGGACCGGGACUAGGAUGC [(Trp1)-(MT2)''-(T1)'-(MT2)'-(Ms2)-(Trp2)_Design4] | 0.0108 | 0.0212 | 0.0138 | 0.0156 | 0.0167 |
| GCAUCCUAGUCGGCCGCCACUGGUACGAAUACCUUCACCCGUGUGCACAUGAGGAUCACCCAUGUCAGGACCGGGACUAGGAUGC [SSTryp B #23] | 0.00958 | 0.0138 | 0.00961 | 0.00922 | 0.00991 |
| GCAUGUUGGUGGUUUCUGCGAAGGCGGAAUCGAGGACCGGUACGGCCGCCACUCGGCGACAUGAGGAUCACCCAUGUGGUUAGGA [Exclusion - Tryptophan A (Freestyle 9)] | 0.0421 | 0.221 | 0.208 | 0.462 | 0.461 |
| GCCGCUGCCGCGGUGUGUGUGGGUGGGUGACGAGGACCGGUACGGCCGCCACUCGCGAUCGCACAUGAGGAUCACCCAUGUGUAA [Exclusion Tryp A GF20] | 0.0133 | 0.0207 | – | – | 0.0196 |
| GCCUAGCAGCGAAGGAGCGAGGUAAAUAAAUAAAUAAAUAACAAGAGGAUCACCCUUGUUCCUCAGGUAGGUCGCGCUGCUAGGC [SSAB Alternative Aptamer #1 NP+V+V2] | 0.016 | 0.0227 | 0.0179 | 0.0175 | 0.0189 |
| GCCUAGCAUCGAAGGAGCGGGCAUUACGCGCGAAAGCGCGAUACUUGAGGAACACCCAAGUCCCAGGUAGGUCGCGAUGCUAGGC [SSAB Alternative Aptamer #3 NP+V+V2] | 0.0314 | 0.127 | 0.0835 | 0.0709 | 0.0949 |
| GCGACACUCACGGCCGCCACUGAUUAGCCCAGUAUGGAGCCCACACAUGAGGAUCACCCAUGUCACAGGACCGGGUGGGUCUAUU [theeternabot_sameState_MS2_Trp_B_23] | 0.0228 | 0.0421 | – | – | 0.0255 |

| Sequence | apparent KD of MS2 coat protein (input ligand: arginine 13.2 mM) [µM] | apparent KD of MS2 coat protein [1] [µM] | apparent KD of MS2 coat protein [2] [µM] | apparent KD of MS2 coat protein (input ligand: none) [µM] | apparent KD of MS2 coat protein [3] [µM] |
| --- | --- | --- | --- | --- | --- |
| GCGACCCUGAGAUCCUGCGUAACGUGAACACGAGGACCGGUACGGCCGCCACUCGAGAGAACAUGAGGAUCACCCAUGUCUGAGC [e-trypA-0(N)] | 0.0162 | 0.0284 | – | – | 0.0264 |
| GCUAGGUCUACGGCCGCCACUAGACGUGGGUAAGACAUGAGGAUCACCCAUGUACUACGGGCGCUUAGGACCGGGUAGACCUAGC [SSTB NP+V+V2 #17 +-Same Structure] | 0.116 | 0.187 | – | – | 0.285 |
| GCUGCCAUACGAAGGAGCGCUGUUGCAAUGAGGCGAACAUGAGGAUCACCCAUGUGGCAGCAGCAGGUAGGUCGCGUAUGGCAGC [EAB #12] | 0.0334 | 0.0536 | 0.0442 | 0.0425 | 0.0527 |
| GCUGUAAGUGCAGAUACCAGCAGGUGAUAUUUCAUAUGACAUGAGGAUCACCCAUGUAACUGCCCUUGGCAGCUGCACUUACAGC [SSTHB #9] | 0.172 | 0.193 | 0.523 | – | – |
| GCUGUACCAUGAAGGAGCGUCACGGAGUGCGAAUACACAUGAGGAUCACCCAUGUUUUUAUGGCAGGUAGGUCGCAUGGUACAGC [#02 Same State - Arginine B] | 0.0228 | 0.0333 | 0.0229 | 0.0223 | 0.0284 |
| GGAACAUGAGGAUCACCCAUGUAAUCACGACGAGGACCGGUACGGCCGCCACUCGUAUUCACGCAAGGUAGAGGAAUACGUAGGC [theeternabot_exclusion_MS2_Trp_A_2] | 0.0154 | 0.0176 | – | – | 0.0143 |
| GGACCAGGGAGCGAUACCAGCUUGAGUGUGCUGGCCAGGCACAUGAGGAUCACCCAUGUAGGCCCUUGGCAGCGCUCCCUGGUCC [#1 Exclusion - Theophylline B Attempt #28 (HarryS)] | 0.00906 | 0.0165 | 0.0141 | 0.00945 | 0.0123 |
| GGAGCUACGUCGGCCGCCACUAGCGGGUAUUGCGUGUACAUGAGGAUCACCCAUGUAAUAUGGCCUAGGACCGGGACGUAGCUCC [Bison] | 0.0133 | 0.0224 | 0.0165 | 0.0167 | 0.0169 |
| GGAUAGGACACGGCCGCCACUAGCUAGGAUACUAGCAACAUUUCCUCACUUGAGGAUCACCCAGGUAGGACCGGGUGUCCUAUCG | 0.143 | 0.577 | 0.62 | 0.58 | 1.43 |
| GGAUAGGACACGGCCGCCACUAGCUAGGAUACUAGCAACAUUUCCUCAGAUGAGGAUCACCCAUCUAGGACCGGGUGUCCUAUCG | 0.0257 | 0.0365 | 0.0844 | 0.026 | 0.0336 |
| GGAUAGGACACGGCCGCCACUGCGGCUAGAUACUAGCACAUUUCCUCACAUGAGGAUCACCCAUGUAGGACCGGGUGUCCUAUCG | 0.0576 | 0.122 | – | – | 0.089 |
| GGAUAGGACAGAAGGAGCGUGAGAUGCAAAGCAUCAUUCCUCACAUGAGGAUCACCCAUGUCACAGGUAGGUCGCUGUCCUAUCG [ArgBX 4] | 0.0783 | 0.119 | 0.112 | 0.0951 | 0.11 |
| GGCACACAUGAGGAUCACCCAUGUGGCGAUACCAGUUGAUGGUAAAACCCUUGGCAGCGCCAGUCACAUGCAGAUAGUUACUGAA [theeternabot_sameState_MS2_Theo_A_32] | 0.0142 | 0.0194 | 0.0158 | – | – |
| GGCACAUAGUCGGCCGCCACUAGUGGGAAAUGGGAGAACAUGAGGAUCACCCAUGUAGCGUAGCCUAGGACCGGGACUAUGUGCC [Elephant] | 0.0853 | 0.172 | – | – | 0.231 |
| GGCACUCUGUAAGAUACCAGACGUCGGUGCUUACAUGAGGAUCACCCAUGUUGCUUUUUAGUCCCUUGGCAGCUUCGGAUAACCA [Oniste] | 0.0886 | 0.557 | 0.23 | – | – |
| GGCCGAUGGUGCGAUACCAGCUUGAGUGUACUGGCCAGGUACAUGAGGAUCACCCAUGUAAGCCCUUGGCAGCGCGUCAAAGGCC [#1 Exclusion - Theophylline B Attempt #20 (HarryS)] | 0.00709 | 0.0176 | 0.0105 | 0.0113 | 0.0242 |
| GGGACAUGAGGAUCACCCAUGUACCGGUCCCGAGGACCGGUACGGCCGCCACUCGAUGACCUCAUAGUCUGCCUGAGCAGCAGAC [Abebeti] | 0.0491 | 0.0966 | – | – | 0.141 |
| GGGAGAUGAAUAGAAUGAGAUGACACAGAAGGAGCGUGAAUUAACACAGGUAGGUCGCUGACAACAUGAGGAUCACCCAUGUAUU [Same State Arginine A GF3] | 0.0181 | 0.0213 | 0.0189 | 0.0152 | 0.0195 |
| GGGCAAGGUGCCGCCUUCGCCCACUGAGAAGGAGCGCAGGGUACUGCAGGUAGGUCGCUCAGACAUGAGGAUCACCCAUGUAGGA [Esislees] | 0.0324 | 0.0899 | 0.0576 | 0.0545 | 0.076 |
